Where a chain is given by its changes, count along the chain named. In names and notes the source's numbering stands. One block for each binder: values may come before it. No end group written: not given here.
B1: BRPF2 bromodomain, wild-type, N-terminal His6-tagged (domain or fragment)
chain: EQVAMELRLTPLTVLLRSVLDQLQDKDPARIFAQPVSLKEVPDYLDHIKHPMDFATMRKRLEAQGYKNLHEFEEDFDLIIDNCMKYNARDTVFYRAAVRLRDQGGVVLRQARREVDSIGLEEASGMHLPERPA
B2: BRPF2 bromodomain I586F mutant (domain or fragment)
chain: B1 chain with I31F

How the values were obtained:
Assay in all cases: ITC
[1] = molecular target: B1
[2] = molecular target: histone H4K8acK12ac (1-15) peptide (UniProt P62805 2-16, acetyl-lysine at K8 and K12)
[3] = molecular target: histone H4K8ac (1-15) peptide (UniProt P62805 2-16, acetyl-lysine at K8)
[4] = molecular target: histone H4K5acK12ac (1-15) peptide (UniProt P62805 2-16, acetyl-lysine at K5 and K12)
[5] = molecular target: histone H4K5acK8ac (1-15) peptide (UniProt P62805 2-16, acetyl-lysine at K5 and K8)
[6] = molecular target: histone H4K12ac (1-15) peptide (UniProt P62805 2-16, acetyl-lysine at K12)
[7] = molecular target: histone H4K5ac (1-15) peptide (UniProt P62805 2-16, acetyl-lysine at K5)

- Kd [1]: 20.5 ± 1.4 µM
Binder: GKGGAK(Ac)RHRKV (peptide, UniProt P62805 12-22, looked up) [histone H4K16ac (11-21) peptide]

- Kd [1]: 10.2 ± 0.2 µM
Binder: KSTGGK(Ac)APRKQ (peptide, UniProt P68431 10-20, looked up) [histone H3K14ac (9-19) peptide]

Binder: B1
- Kd [2]: 44.7 ± 3.5 µM
- Kd [3]: 6.2 ± 0.6 µM
- Kd [4]: 3.2 ± 0.1 µM
- Kd [5]: 28.5 ± 1.6 µM
- Kd [6]: 18.2 ± 1.2 µM
- Kd [7]: 3.5 ± 0.4 µM

Binder: B2
- binding result [7]: binds

— article doi:10.1101/2022.02.20.481182 (bioRxiv, 2022)
